Key:
[1] = molecular target: T1, synthetic peptide Ac-SPLAQA-VRSSSR-NH2 (SEQ ID NO: 17) with the P′1 valine substituted by alanine
T1 chain: SPLAQAARSSSR

[2] = molecular target: T2, synthetic peptide Ac-SPLAQA-VRSSSR-NH2 (SEQ ID NO: 17) with the P′1 valine substituted by glycine
T2 chain: SPLAQAGRSSSR

[3] = molecular target: T3, synthetic peptide Ac-SPLAQA-VRSSSR-NH2 (SEQ ID NO: 17) with the P′1 valine substituted by serine
T3 chain: SPLAQASRSSSR

B1: tumor necrosis factor-alpha converting enzyme (TACE) catalytic domain (protein)
chain: RADPDPMKNTCKLLVVADHRFYRYMGRGEESTTTNYLIELIDRVDDIYRNTAWDNAGFKGYGIQIEQIRILKSPQEVKPGEKHYNMAKSYPNEEKDAWDVKMLLEQFSFDIAEEASKVCLAHLFTYQDFDMGTLGLAYVGSPRANSHGGVCPKAYYSPVGKKNIYLNSGLTSTKNYGKTILTKEADLVTTHELGHNFGAEHDPDGLAECAPNEDQGGKYVMYPIAVSGDHENNKMFSQCSKQSIYKTIESKAQECFQERSNKVGSHHHHHH
- catalytic activity of TACE (product formation quantified at 214 nm after HPLC separation; 100 nM TACE, 100 micromolar substrate) [1]: decreased activity of TACE to non-detectable levels
- catalytic activity of TACE (product formation quantified at 214 nm after HPLC separation; 100 nM TACE, 100 micromolar substrate) [2]: decreased activity of TACE to non-detectable levels
- catalytic activity of TACE (product formation quantified at 214 nm after HPLC separation; 100 nM TACE, 100 micromolar substrate) [3]: decreased activity of TACE to non-detectable levels

From patent US20070148669
